B1: Leukocyte antigen CD37 (Homo sapiens), P11049 (parent)
chain: MSAQESCLSLIKYFLFVFNLFFFVLGSLIFCFGIWILIDKTSFVSFVGLAFVPLQIWSKVLAISGIFTMGIALLGCVGALKELRCLLGLYFGMLLLLFATQITLGILISTQRAQLERSLRDVVEKTIQKYGTNPEETAAEESWDYVQFQLRCCGWHYPQDWFQVLILRGNGSEAHRVPCSCYNLSATNDSTILDKVILPQLSRLGHLARSRHSADICAVPAESHIYREGCAQGLQKWLHNNLISIVGICLGVGLLELGFMTLSIFLCRNLDHVYNRLARYR

Variants of B1 are the subject of one experiment. To be noted: with lyn_human LYN.
As to MSAQESCLSLIKFFLFVFNLFFFVLGSLIFCFGIWILIDKTSFVSFVGLAFVPLQIWSKVLAISGIFTMGIALLGCVGALKELRCLLGLYFGMLLLLFATQITLGILISTQRAQLERSLRDVVEKTIQKYGTNPEETAAEESWDYVQFQLRCCGWHYPQDWFQVLILRGNGSEAHRVPCSCYNLSATNDSTILDKVILPQLSRLGHLARSRHSADICAVPAESHIYREGCAQGLQKWLHNNLISIVGICLGVGLLELGFMTLSIFLCRNLDHVYNRLARYR [Y13F], the “effect of a mutation on the interaction” value was “disrupting interaction”.

In the next experiment the parent is B1. The conditions noted are these: with ptn6_human PTPN6, P29350.
Sequence of ptn6_human PTPN6, P29350 (P29350 whole entry): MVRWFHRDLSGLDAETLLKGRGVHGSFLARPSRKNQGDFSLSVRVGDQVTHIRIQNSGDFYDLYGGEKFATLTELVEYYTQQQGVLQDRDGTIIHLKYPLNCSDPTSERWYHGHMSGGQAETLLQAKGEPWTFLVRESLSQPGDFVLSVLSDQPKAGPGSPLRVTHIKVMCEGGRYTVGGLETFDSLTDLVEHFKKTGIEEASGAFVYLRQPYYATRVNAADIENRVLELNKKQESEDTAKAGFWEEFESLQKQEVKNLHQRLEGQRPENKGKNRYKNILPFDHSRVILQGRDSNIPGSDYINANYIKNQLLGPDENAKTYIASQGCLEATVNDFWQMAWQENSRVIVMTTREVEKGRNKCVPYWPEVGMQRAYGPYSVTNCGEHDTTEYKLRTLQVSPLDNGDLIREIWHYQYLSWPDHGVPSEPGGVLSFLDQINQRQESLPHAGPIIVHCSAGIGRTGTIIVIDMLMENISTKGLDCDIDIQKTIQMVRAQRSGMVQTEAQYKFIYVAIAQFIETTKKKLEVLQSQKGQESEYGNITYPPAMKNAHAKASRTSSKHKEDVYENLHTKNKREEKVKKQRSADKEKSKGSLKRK
With MSAQESCLSLIKFFLFVFNLFFFVLGSLIFCFGIWILIDKTSFVSFVGLAFVPLQIWSKVLAISGIFTMGIALLGCVGALKELRCLLGLYFGMLLLLFATQITLGILISTQRAQLERSLRDVVEKTIQKYGTNPEETAAEESWDYVQFQLRCCGWHYPQDWFQVLILRGNGSEAHRVPCSCYNLSATNDSTILDKVILPQLSRLGHLARSRHSADICAVPAESHIYREGCAQGLQKWLHNNLISIVGICLGVGLLELGFMTLSIFLCRNLDHVYNRLARYR [Y13F], the “effect of a mutation on the interaction” value is reported as “disrupting interaction”.

For the origin of these results see IntAct's records for PubMed 22624718.
